Values of other authors as cited in publication PMC12053642, “Oral PRI-002 treatment in patients with MCI or mild AD: a randomized, double-blind phase 1b trial” (Nature Communications, 2025).

System: early AD patients
Parameters: ADAS-cog: dose or concentration left out as unconfirmed
Conditions: cited from earlier work; for deceleration of progression measured by CDR-SB versus placebo: over 18 months, on average
Excerpt: After two decades of setbacks, the United States Food and Drug Administration (USFDA) full approvals for lecanemab[1] and donanemab[2] presents the beginning of a new decade for AD patients with several more drug candidates holding promise for marketing authorisation in the foreseeable future.

| Molecule | ADAS-Cog13 and CDR-SB (700 mg for the first 3 doses and 1400 mg thereafter i.v. every 4 weeks, after 12 weeks of treatment) | deceleration of progression measured by CDR-SB versus placebo | slowed decline on measures of cognition and function than placebo (early AD, at 18 months (CDR-SB, ADAS-cog14, ADCOMS, ADCS-MCI-ADL)) | ADAS-cog (from week 12, most prominent at 6 months) |
| --- | --- | --- | --- | --- |
| donanemab: anti-amyloid therapeutic antibody [reference compound] | significant improvement | up to 36% | – | – |
| lecanemab: anti-amyloid therapeutic antibody, claimed to preferentially target soluble Aβ protofibrils (antibody, chains of the INN, looked up, V domains shown) VH: EVQLVESGGGLVQPGGSLRLSCSASGFTFSSFGMHWVRQAPGKGLEWVAYISSGSSTIYYGDTVKGRFTISRDNAKNSLFLQMSSLRAEDTAVYYCAREGGYYYGRSYYTMDYWGQGTTVTVSS VL: DVVMTQSPLSLPVTPGAPASISCRSSQSIVHSNGNTYLEWYLQKPGQSPKLLIYKVSNRFSGVPDRFSGSGSGTDFTLRISRVEAEDVGIYYCFQGSHVPPTFGPGTKLEIK | – | up to 36% | 27% | symptomatic improvement |
